The target in assay [1] is GDF-11 (Homo sapiens (Human)) (UniProt O95390). The experiment in a line: cell-based or functional assay.
In assay [2] the target is T1, myostatin (human, UniProt O14793 267-375).
T1 sequence: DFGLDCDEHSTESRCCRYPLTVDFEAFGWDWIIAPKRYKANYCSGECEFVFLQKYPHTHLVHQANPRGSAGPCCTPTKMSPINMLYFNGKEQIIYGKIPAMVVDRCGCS
The experiment in a line: cell-based or functional assay.

Assay [3] has as its target T2, activin A (human, UniProt P08476 311-426).
T2 sequence: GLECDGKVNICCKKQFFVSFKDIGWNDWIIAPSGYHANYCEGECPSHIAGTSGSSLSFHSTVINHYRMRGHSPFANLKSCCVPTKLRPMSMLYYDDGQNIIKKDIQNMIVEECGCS
The experiment in a line: cell-based or functional assay.

Assay [4] has as its target GDF-11 (Homo sapiens (Human)) (UniProt O95390). The experiment in a line: KinExA solution equilibrium binding, ligand-coated beads, room temperature. Background: Kinetic exclusion samples the free partner from a solution-phase mixture.
Assay [5] addresses T1, myostatin. The assay is described as above. On the procedure: (§1) Solution-based equilibrium-binding assays using KinExA™ technology (Sapidyne Instruments, Inc.) were used to determine the dissociation equilibrium (KD) of ligand binding to ActRIIB-Fc polypeptides. UltraLink Biosupport beads (Pierce) was pre-coated with about 100 μg/m1 each of myostatin, GDF-11, and activin A overnight, and then blocked with BSA. 1 pM and 3 pM of ActRIIB-Fc (E28W) (SEQ ID NO: 21) and svActRIIB-Fc (E28W, S44T) (SEQ ID NO: 10) samples were incubated with various concentrations (0.7 fM to 160 pM) of myostatin, activin A, and GDF-11 respectively in sample buffer at room temperature for 8 hours before being run through the ligand-coated beads. The amount of the bead-bound soluble receptor was quantified by fluorescent (Cy5) labeled goat anti-human-Fc antibody at 1 mg/ml in superblock. The binding signal is proportional to the concentration of free soluble receptor at equilibrium with a given myostatin, activin A, or GDF-11 concentration. KD was obtained from the nonlinear regression of the competition curves using a dual-curve one-site homogeneous binding model provided in the KinEx A™ software (Sapidyne Instruments, Inc.).

The target in assay [6] is T2, activin A. The assay is described as above. On the procedure: as §1

Where a chain is given by its changes, count along the chain named. In names and notes the source's numbering stands.

B1: ActRIIB-Fc (E28W) (Fc fusion)
chain: ETRWCIYYNANWELERTNQSGLERCEGEQDKRLHCYASWRNSSGTIELVKKGCWLDDFNCYDRQECVATEENPQVYFCCCEGNFCNERFTHLPEAGGPEVTYEPPPTAPTGGGGSVECPPCPAPPVAGPSVFLFPPKPKDTLMISRTPEVTCVVVDVSHEDPEVQFNWYVDGVEVHNAKTKPREEQFNSTFRVVSVLTVVHQDWLNGKEYKCKVSNKGLPAPIEKTISKTKGQPREPQVYTLPPSREEMTKNQVSLTCLVKGFYPSDIAVEWESNGQPENNYKTTPPMLDSDGSFFLYSKLTVDKSRWQQGNVFSCSVMHEALHNHYTQKSLSLSPGK
notes: also called ActRIIB-IgG2Fc (E28W); ActRIIB-IgG Fc (E28W)
Regarding B1, the IC50, luciferase activity in C2C12/pMARE reporter cells, 4 nM ligand in assay [1] is 2.4 nM; with myostatin [2] it was 0.95 nM; in the assay with activin A [3], 3.2 nM. The Kd (usually the equilibrium constant for the complex coming apart) in assay [4] came to 0.1 pM; with myostatin [5] it was 0.1 pM; in the assay with activin A [6], 0.2 pM.

B2: svActRIIB-Fc (E28W, S44T) (Fc fusion)
chain: B1 chain with S20T
notes: also called svActRIIB-IgG2Fc (E28W, S44T); svActRIIB-IgG Fc (E28W, S44T)
For the molecule B2, the IC50, luciferase activity in C2C12/pMARE reporter cells, 4 nM ligand amounted to 2.4 nM in assay [1], 1.07 nM in the assay with myostatin [2] and 3.6 nM in the assay with activin A [3]. Also, the Kd (in assay [4]; in the assay with myostatin [5]; with activin A [6]) was 0.1 pM in each case.

For the origin of these results see patent publication US20160333418A1 (SANTA MARIA BIOTHERAPEUTICS, published 2016).
